Measured values published in patent US10647775B2.
Substitutions are numbered along the chain they refer to.

B1: DBDpp of SEQ ID NO: 44 (designed binder)
chain: MGSWFEFENRLHAIVHRLGALGGSEAELAAFEKEIAAFESELQAYKGKGNPEVETLRADAAFIRHYLQAYRHN
B2: DBDpp of SEQ ID NO: 38 (designed binder)
chain: MGSWTEFQSRLDAIHSRLRALGGSEAELAAFEKEIAAFESELQAYKGKGNPEVELLRDDAAFIRHFLQAYRHN
B3: DBDpp of SEQ ID NO: 40 (designed binder)
chain: B2 chain with T5Y, S9N, D12H, S16E, R19N
B4: DBDpp of SEQ ID NO: 42 (designed binder)
chain: B2 chain with T5Y, Q8E, S16E, R19H, L55N, D58G
B5: DBDpp of SEQ ID NO: 39 (designed binder)
chain: B2 chain with T5Q, Q8D, S9D, D12N, H15K, S16A, R19Q, L55D, H65R
B6: DBDpp of SEQ ID NO: 43 (designed binder)
chain: B2 chain with T5Y, Q8N, S9H, H15S, S16K, R19N, L55E, D58G
B7: DBDpp of SEQ ID NO: 41 (designed binder)
chain: B1 chain with E8Q, N9D, H12T, V15N, H16E, G19S, A58S, H65R, Y66F
B8: DBDpp of SEQ ID NO: 45 (designed binder)
chain: MGSWVVFKVDLATIKYILEALGGSEAELAEFEGEIAGFEYSLQFYKGKGNPEVEALRKEAAAIRDELQAYRHN
B9: DBDpp of SEQ ID NO: 47 (designed binder)
chain: MGSWVMFKWLLADIKSHLEALGGSEAELAFFEGFIAAFETHLQVYKGKGNPEVEALRKEAAAIRDELQAYRHN
B10: DBDpp of SEQ ID NO: 48 (designed binder)
chain: MGSWYAFKDYLADIKGWLEALGGSEAELAFFEIFIARFELELQAYKGKGNPEVEALRKEAAAIRDELQAYRHN
B11: DBDpp of SEQ ID NO: 46 (designed binder)
chain: MGSWTIFKEWLAFIKTDLEALGGSEAELAFFEGWIASFEMELQKYKGKGNPEVEALRKEAAAIRDELQAYRHN
B12: DBDpp of SEQ ID NO: 28 (designed binder)
chain: MGSWVYFKEHLAWIKTELEALGGSEAELAHFEHSIADFEMSLQFYKGKGNPEVEALRKEAAAIRDELQAYRHN
B13: DBDpp of SEQ ID NO: 32 (designed binder)
chain: B12 chain with V5I, W13Y, T16K, H33S, S34A, D37V, M40S, S41T, F44Y
B14: DBDpp of SEQ ID NO: 33 (designed binder)
chain: B12 chain with V5T, W13E, T16Y, E17M, H33V, S34A, M40K, S41M, F44Y
B15: DBDpp of SEQ ID NO: 26 (designed binder)
chain: MGSWNYFKDHLAWIKNSLEALGGSEAELAHFETAIASFERQLQEYKGKGNPEVEALRKEAAAIRDELQAYRHN
B16: DBDpp of SEQ ID NO: 30 (designed binder)
chain: B15 chain with N5H, W13E, N16G, S17L, T33M, S37D, R40H, Q41N, E44Y
B17: DBDpp of SEQ ID NO: 29 (designed binder)
chain: B15 chain with N5F, D9Q, N16S, S17Y, T33R, S37A, R40Q, Q41H, E44M
B18: DBDpp of SEQ ID NO: 31 (designed binder)
chain: B15 chain with N5H, D9G, W13E, S17H, T33R, S37A, Q41S, E44W
B19: DBDpp of SEQ ID NO: 27 (designed binder)
chain: B15 chain with N5L, D9E, W13H, N16A, S17W, T33L, S37D, R40Y, Q41H
B20: DBDpp of SEQ ID NO: 34 (designed binder)
chain: B15 chain with N5W, Y6L, W13E, N16T, S17A, T33M, S37A, R40K, E44Y
B21: DBDpp of SEQ ID NO: 36 (designed binder)
chain: MGSWYEFYNRLYAIEIRLYALGGSEAELAAFEKEIAAFESELQAYKGKGNPEVERLRVRAAKIRVILQAYRHN
B22: DBDpp of SEQ ID NO: 37 (designed binder)
chain: MGSWLWFKIFLAEIKYFLEALGGSEAELAAFDFEIHAFHVELFAYKGKGNPEVEVLREVAAEIRWDLQAYRHN
B23: DBDpp of SEQ ID NO: 35 (designed binder)
chain: MGSWSEFYNRLDAIESRLLALGGSEAELALFEIQIARFEKVLQAYKGKGNPEVEALRGEARAIFAELYAYRHN
B24: DBDpp of SEQ ID NO: 20 (designed binder)
chain: MGSWYEFDLRLHAIYDRLVALGGSEAELAAFEKEIAAFESELQAYKGKGNPEVEILRDNAAYIRQMLQAYRHN
B25: DBDpp of SEQ ID NO: 22 (designed binder)
chain: B24 chain with Y5A, L9H, Y15R, D16E, V19H, D58G, Q65A, M66L
B26: DBDpp of SEQ ID NO: 23 (designed binder)
chain: MGSWTEFVGRLAAIEFRLWALGGSEAELAWFEAHIAFFEDYLQWYKGKGNPEVEALREEAGAIMEELKAYRHN
B27: DBDpp of SEQ ID NO: 21 (designed binder)
chain: MGSWTEFTYRLSAIEWRLWALGGSEAELAWFEQKIAFFEDFLQYYKGKGNPEVEALKHEAGAILNELMAYRHN
B28: DBDpp of SEQ ID NO: 24 (designed binder)
chain: MGSWTEFYSRLEAIWVRLQALGGSEAELAMFEDRIAHFEWFLQQYKGKGNPEVEALHEEAIAIRKELAAYRHN
B29: DBDpp of SEQ ID NO: 25 (designed binder)
chain: MGSWHEFHDRLQAIHERLYALGGSEAELAAFEKEIAAFESELQAYKGKGNPEVESLRIAAAHIRQVLQAYRHN
B30: DBDpp of SEQ ID NO: 15 (designed binder)
chain: MGSWYEFSMRLWAIDQRLYALGGSEAELAAFEKEIAAFESELQAYKGKGNPEVEALRAKAAYIRWKLQAYRHN
B31: DBDpp of SEQ ID NO: 17 (designed binder)
chain: B30 chain with S8G, M9H, A55Y, A58E, K59T, Y62H, W65T, K66R
B32: DBDpp of SEQ ID NO: 14 (designed binder)
chain: B30 chain with S8R, M9H, A55G, A58E, K59A, Y62F, W65A
B33: DBDpp of SEQ ID NO: 13 (designed binder)
chain: B30 chain with Y5V, S8A, M9N, Y19F, A55H, A58D, K59Q, Y62F, W65H
B34: DBDpp of SEQ ID NO: 18 (designed binder)
chain: B30 chain with S8H, M9Y, W12H, A55E, A58I, Y62F, W65D, K66R
B35: DBDpp of SEQ ID NO: 12 (designed binder)
chain: B30 chain with Y5V, S8G, M9H, A55K, A58Q, K59R, Y62F, W65F, K66R
B36: DBDpp of SEQ ID NO: 16 (designed binder)
chain: MGSWFEFNHRLWAINERLYALGGSEAELAAFEKEIAAFESELQAYKGKGNPEVERLRSMAAFIRYKLQAYRHN
B37: bb10 (designed binder)
chain: MGSWAEFKQRLAAIKTRLEALGGSEAELAAFLGEIWAFEMELAAYKGKGNPEVEALGREAAAIRMELQAYRHN

biological target: PD-L1-Fc (human) (UniProt Q9NZQ7); test: phage ELISA, target-Fc against non-specific control (IgG1-Fc)
Sequence (Q9NZQ7 19-239 limits assumed): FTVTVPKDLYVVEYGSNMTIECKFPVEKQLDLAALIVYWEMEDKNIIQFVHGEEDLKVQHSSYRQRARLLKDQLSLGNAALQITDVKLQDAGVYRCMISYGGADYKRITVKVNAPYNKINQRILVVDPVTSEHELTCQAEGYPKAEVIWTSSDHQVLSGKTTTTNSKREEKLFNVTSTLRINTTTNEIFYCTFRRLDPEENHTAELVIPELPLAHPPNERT

ELISA ratio (target to background)	Binder
2.76	B1
8.68	B2
6.34	B3
4.88	B4
7.41	B5
2.98	B6
6.01	B7

biological target: TIM3-Fc (Homo sapiens (Human)) (UniProt Q8TDQ0); test: as above

ELISA ratio (target to background)	Binder
5.79	B8

biological target: PD1-Fc (Homo sapiens (Human)) (UniProt Q15116); test: as above
Sequence (Q15116 25-167 limits assumed): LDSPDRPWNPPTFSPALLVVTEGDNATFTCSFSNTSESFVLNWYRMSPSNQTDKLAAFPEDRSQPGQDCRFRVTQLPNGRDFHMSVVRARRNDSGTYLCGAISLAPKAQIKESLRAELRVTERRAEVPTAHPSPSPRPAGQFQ

ELISA ratio (target to background)	Binder
8.13	B9
3.29	B10
17.1	B11

biological target: DR5-Fc (Homo sapiens (Human)) (UniProt O14763); test: as above
Sequence (O14763 56-182 limits assumed): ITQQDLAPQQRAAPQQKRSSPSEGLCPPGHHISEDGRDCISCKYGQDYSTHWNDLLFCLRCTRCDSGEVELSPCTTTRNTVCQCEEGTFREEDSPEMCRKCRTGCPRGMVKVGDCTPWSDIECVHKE

ELISA ratio (target to background)	Binder
12.1	B12
10.7	B13
10.3	B14
13	B15
11.4	B16
11.8	B17
10.8	B18
12.3	B19
9.75	B20

biological target: KIR-Fc; test: as above

ELISA ratio (target to background)	Binder
4.24	B21
4.17	B22
8.4	B23

biological target: CD47-Fc (Homo sapiens (Human)) (UniProt Q08722); test: as above
Sequence (Q08722 19-139 limits assumed): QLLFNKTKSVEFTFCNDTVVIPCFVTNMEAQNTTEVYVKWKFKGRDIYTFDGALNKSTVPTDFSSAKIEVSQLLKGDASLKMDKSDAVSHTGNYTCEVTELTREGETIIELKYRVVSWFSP

ELISA ratio (target to background)	Binder
14.1	B24
11.7	B25
8.23	B26
12.5	B27
4.58	B28

biological target: CTLA4-Fc (Homo sapiens (Human)) (UniProt P16410); test: as above
Sequence (P16410 37-162 limits assumed): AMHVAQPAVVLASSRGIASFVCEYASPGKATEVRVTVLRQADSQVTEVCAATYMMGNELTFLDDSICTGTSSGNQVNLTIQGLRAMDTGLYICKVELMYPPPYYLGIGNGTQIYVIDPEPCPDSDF

ELISA ratio (target to background)	Binder
2.95	B29

biological target: recombinant, biotinylated, Human 4-1BB/TNFRSF9/CD137-Fc (human) (UniProt Q07011); test: as above
Sequence (Q07011 24-186 limits assumed): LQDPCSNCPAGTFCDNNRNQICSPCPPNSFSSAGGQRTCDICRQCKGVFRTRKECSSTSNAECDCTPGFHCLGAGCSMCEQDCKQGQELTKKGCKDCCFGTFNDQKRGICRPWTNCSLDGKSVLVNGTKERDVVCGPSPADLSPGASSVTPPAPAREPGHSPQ

ELISA ratio (target to background)	Binder
12	B30
7.71	B31
13	B32
16.1	B33
7.26	B34
20.6	B35
11.9	B36

biological target: recombinant, biotinylated, Human 4-1BB/TNFRSF9/CD137-Fc (human) (UniProt Q07011); test: phage ELISA of rescued clones

ELISA absorbance (average)	Binder
0.353	B37

biological target: IgG Fc (control); test: phage ELISA of rescued clones on control IgG Fc

ELISA absorbance (average)	Binder
0.067	B37

biological target: recombinant, biotinylated, Human 4-1BB/TNFRSF9/CD137-Fc (human) (UniProt Q07011); test: phage ELISA, CD137-Fc against control IgG Fc

ELISA ratio (target to background)	Binder
5.27	B37
